Laboratory results published in patent US20180074053A1 (priority 2016, published 2018).
Non-standard residues stand in square brackets, D forms with d. No end group written: not given here.

How the values were obtained:
[1] = system: eNOS; experiment: eNOS mRNA expression in HUVEC; type: cell-based, human; conditions: FIG. 15
Text: It has been shown that activation of MRGD by alamandine plays an important role in vasodilation by increasing nitric oxide (NO) production. NO produced by the endothelium is an important protective molecule in the vasculature and is mainly generated by the enzyme endothelial NO synthase (eNOS) in blood vessels. Enhancing the expression of eNOS has been considered as possible therapeutic strategy for reducing cardiovascular risk.

[2] = target: MCHR1 (UniProt Q99705 1-353, limits assumed); experiment: cell-based or functional assay
[3] = target: Motilin (GPCR target; motilin receptor) (UniProt O43193 1-412, limits assumed); experiment: cell-based or functional assay
[4] = target: MRGX1 (UniProt Q96LB2 1-322, limits assumed); experiment: cell-based or functional assay
[5] = target: T1, MRGX2 (UniProt Q96LB1 1-330, limits assumed); experiment: cell-based or functional assay
T1 sequence (looked up): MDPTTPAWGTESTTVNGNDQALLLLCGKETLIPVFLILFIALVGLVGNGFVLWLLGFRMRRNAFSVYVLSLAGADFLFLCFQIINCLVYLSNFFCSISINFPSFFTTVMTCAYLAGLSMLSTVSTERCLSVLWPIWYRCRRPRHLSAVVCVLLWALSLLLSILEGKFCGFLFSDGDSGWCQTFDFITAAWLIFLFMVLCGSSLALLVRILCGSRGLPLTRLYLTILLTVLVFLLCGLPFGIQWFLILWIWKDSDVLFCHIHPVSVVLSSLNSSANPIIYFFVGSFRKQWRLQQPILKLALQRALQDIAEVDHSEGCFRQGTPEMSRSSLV

[6] = target: T2, NMUR1 (UniProt Q9HB89 1-426, limits assumed); experiment: cell-based or functional assay
T2 sequence (looked up): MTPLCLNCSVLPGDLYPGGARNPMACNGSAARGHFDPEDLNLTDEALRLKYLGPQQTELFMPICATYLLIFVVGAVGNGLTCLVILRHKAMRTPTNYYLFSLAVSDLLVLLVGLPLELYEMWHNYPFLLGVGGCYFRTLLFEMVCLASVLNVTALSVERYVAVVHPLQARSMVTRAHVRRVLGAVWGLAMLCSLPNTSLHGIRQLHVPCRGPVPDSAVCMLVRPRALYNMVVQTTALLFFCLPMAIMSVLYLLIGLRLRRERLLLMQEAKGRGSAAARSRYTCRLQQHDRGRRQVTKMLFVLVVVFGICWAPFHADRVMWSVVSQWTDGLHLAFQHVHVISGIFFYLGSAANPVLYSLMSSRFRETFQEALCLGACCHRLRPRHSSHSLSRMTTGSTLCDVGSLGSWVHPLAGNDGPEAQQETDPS

[7] = target: NOP (UniProt P41146 1-370); experiment: cell-based or functional assay
[8] = target: T3, NPBW1 (UniProt P48145 1-328); experiment: cell-based or functional assay
T3 sequence (looked up): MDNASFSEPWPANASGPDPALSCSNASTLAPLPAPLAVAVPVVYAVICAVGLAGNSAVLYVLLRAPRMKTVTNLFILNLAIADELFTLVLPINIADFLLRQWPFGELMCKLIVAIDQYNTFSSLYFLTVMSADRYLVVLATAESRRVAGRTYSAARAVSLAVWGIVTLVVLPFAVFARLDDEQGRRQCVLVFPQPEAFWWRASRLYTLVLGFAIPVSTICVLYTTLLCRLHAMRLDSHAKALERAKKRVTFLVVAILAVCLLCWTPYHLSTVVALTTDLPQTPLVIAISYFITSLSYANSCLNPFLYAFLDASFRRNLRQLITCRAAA

[9] = target: MAS-related G-protein-coupled receptor member D (MRGD) (human, UniProt Q8TDS7 1-321); experiment: cell-based or functional assay
[10] = target: GPCR40, the free fatty acid receptor (human, UniProt O14842 1-300); experiment: cell-based or functional assay
[11] = target: GPCR 109a, the nicotinic acid receptor (human, UniProt Q8TDS4 1-363); experiment: cell-based or functional assay
[12] = target: MC4 (UniProt P32245 1-332); experiment: cell-based or functional assay
[13] = target: MC5 (UniProt P33032 1-325); experiment: cell-based or functional assay
MC5, sequence (P33032 whole entry): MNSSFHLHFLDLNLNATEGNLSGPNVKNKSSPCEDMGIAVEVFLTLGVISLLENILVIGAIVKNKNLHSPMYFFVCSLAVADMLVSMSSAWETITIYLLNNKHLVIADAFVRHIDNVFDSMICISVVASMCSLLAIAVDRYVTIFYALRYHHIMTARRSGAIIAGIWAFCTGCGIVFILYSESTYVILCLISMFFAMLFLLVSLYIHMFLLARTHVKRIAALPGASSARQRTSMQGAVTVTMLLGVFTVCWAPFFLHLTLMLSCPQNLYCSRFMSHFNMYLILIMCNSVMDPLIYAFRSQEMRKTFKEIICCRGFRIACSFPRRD

GPCR 109a, the nicotinic acid receptor, sequence (Q8TDS4 whole entry): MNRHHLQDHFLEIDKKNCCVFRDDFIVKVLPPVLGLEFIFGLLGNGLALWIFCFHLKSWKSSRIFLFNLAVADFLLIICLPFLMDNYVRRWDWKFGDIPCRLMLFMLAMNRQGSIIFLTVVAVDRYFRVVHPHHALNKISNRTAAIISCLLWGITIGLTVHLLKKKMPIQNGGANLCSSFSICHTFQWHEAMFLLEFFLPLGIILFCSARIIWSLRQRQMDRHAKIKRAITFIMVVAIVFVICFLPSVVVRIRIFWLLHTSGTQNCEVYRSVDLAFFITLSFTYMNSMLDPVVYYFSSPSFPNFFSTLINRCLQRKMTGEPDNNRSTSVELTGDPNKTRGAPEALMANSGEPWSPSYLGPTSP
MC4, sequence (P32245 whole entry): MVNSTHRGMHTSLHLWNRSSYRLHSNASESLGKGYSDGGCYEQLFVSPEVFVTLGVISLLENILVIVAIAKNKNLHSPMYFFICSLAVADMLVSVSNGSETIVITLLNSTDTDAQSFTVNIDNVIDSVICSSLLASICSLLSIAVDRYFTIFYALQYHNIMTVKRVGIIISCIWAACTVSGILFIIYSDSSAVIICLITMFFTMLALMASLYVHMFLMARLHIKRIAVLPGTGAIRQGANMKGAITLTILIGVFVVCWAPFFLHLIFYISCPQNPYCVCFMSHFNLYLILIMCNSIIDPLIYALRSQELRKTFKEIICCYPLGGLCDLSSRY
MCHR1, sequence (Q99705 whole entry): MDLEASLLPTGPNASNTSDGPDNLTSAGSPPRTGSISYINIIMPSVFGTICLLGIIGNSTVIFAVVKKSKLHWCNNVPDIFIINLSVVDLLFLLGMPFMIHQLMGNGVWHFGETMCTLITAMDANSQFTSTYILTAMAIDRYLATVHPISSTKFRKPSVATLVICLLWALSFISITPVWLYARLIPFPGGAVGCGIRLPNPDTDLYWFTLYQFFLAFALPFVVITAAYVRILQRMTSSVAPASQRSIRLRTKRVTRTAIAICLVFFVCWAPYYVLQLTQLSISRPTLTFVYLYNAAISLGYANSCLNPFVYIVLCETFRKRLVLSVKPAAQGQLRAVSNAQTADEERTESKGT
MRGX1, sequence (Q96LB2 whole entry): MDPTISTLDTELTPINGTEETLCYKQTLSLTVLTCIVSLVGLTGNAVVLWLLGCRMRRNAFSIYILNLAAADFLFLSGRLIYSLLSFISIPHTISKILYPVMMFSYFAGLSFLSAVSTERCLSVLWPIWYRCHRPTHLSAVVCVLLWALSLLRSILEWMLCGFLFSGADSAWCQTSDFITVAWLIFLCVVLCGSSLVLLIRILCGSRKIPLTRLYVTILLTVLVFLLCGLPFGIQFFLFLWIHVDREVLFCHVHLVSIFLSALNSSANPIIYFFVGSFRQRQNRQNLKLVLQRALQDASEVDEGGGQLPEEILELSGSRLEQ
GPCR40, the free fatty acid receptor, sequence (O14842 whole entry): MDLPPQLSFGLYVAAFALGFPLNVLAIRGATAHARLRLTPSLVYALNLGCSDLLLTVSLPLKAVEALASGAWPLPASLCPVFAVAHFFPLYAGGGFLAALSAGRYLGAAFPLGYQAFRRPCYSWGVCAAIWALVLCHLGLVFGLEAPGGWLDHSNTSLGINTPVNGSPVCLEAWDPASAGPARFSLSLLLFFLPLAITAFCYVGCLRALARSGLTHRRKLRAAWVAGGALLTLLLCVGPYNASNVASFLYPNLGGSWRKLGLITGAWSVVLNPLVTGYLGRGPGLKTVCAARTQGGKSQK
MAS-related G-protein-coupled receptor member D (MRGD), sequence (Q8TDS7 whole entry): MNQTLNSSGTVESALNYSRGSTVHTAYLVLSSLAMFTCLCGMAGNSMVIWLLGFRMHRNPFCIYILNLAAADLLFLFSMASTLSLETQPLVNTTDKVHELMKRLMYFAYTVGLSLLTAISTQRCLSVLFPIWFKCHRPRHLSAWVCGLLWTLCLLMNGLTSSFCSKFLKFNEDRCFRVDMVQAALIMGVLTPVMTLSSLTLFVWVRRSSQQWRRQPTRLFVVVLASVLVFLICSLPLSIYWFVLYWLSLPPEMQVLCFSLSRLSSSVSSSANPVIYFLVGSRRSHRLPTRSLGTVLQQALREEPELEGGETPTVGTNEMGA
NOP, sequence (P41146 whole entry): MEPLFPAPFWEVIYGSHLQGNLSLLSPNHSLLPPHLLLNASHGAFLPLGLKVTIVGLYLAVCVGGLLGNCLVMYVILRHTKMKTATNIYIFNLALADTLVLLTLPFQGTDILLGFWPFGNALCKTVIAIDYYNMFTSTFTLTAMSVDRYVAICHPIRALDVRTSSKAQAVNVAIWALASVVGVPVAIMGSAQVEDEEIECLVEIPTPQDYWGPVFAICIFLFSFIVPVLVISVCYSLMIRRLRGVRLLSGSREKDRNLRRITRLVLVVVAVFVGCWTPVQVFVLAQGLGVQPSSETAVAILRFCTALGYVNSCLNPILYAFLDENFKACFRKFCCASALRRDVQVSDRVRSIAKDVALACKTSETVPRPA
Motilin (GPCR target; motilin receptor), sequence (O43193 whole entry): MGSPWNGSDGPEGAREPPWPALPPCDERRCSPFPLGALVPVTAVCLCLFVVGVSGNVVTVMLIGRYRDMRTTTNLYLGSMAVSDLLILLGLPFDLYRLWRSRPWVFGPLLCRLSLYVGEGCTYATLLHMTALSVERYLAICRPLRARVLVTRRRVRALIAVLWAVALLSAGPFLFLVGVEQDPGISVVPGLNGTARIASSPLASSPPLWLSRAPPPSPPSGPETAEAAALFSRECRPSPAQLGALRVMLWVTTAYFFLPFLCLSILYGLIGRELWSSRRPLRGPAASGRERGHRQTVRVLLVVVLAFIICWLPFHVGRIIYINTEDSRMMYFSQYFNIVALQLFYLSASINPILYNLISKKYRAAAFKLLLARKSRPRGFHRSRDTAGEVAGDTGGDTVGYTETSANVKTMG

CC(C)C[C@@H](NC(=O)CNC(=O)CN)C(=O)O
eNOS mRNA levels ([1]; 30 minutes, vs control): the same
eNOS expression ([1]; 60 minutes): increased eNOS expression
eNOS expression ([1]; 120 minutes): increased eNOS expression

Gly-Gly-[dL] [DT-110, tripeptide glycine-glycine-D-leucine (GGdL)]
percent activation (calcium flux, GPCRProfiler), DT-110 @ 1.25 mM, Avg. [2]: 0.4%
percent activation (calcium flux, GPCRProfiler), DT-110 @ 1.25 mM, n1 [2]: 0.2%
percent activation (calcium flux, GPCRProfiler), DT-110 @ 1.25 mM, n2 [2]: 0.7%
percent activation (calcium flux, GPCRProfiler), DT-110 @ 12.5 mM, Avg. [2]: -0.1%
percent activation (calcium flux, GPCRProfiler), DT-110 @ 12.5 mM, n1 [2]: -0.5%
percent activation (calcium flux, GPCRProfiler), DT-110 @ 12.5 mM, n2 [2]: 0.3%
percent activation (calcium flux, GPCRProfiler), DT-110 @ 1.25 mM, Avg. [3]: -0.3%
percent activation (calcium flux, GPCRProfiler), DT-110 @ 1.25 mM, n1 [3]: -0.3%
percent activation (calcium flux, GPCRProfiler), DT-110 @ 1.25 mM, n2 [3]: -0.3%
percent activation (calcium flux, GPCRProfiler), DT-110 @ 12.5 mM, Avg. [3]: -0.4%
percent activation (calcium flux, GPCRProfiler), DT-110 @ 12.5 mM, n1 [3]: -0.3%
percent activation (calcium flux, GPCRProfiler), DT-110 @ 12.5 mM, n2 [3]: -0.5%
percent activation (calcium flux, GPCRProfiler), DT-110 @ 1.25 mM, Avg. [4]: -1.9%
percent activation (calcium flux, GPCRProfiler), DT-110 @ 1.25 mM, n1 [4]: -1.3%
percent activation (calcium flux, GPCRProfiler), DT-110 @ 1.25 mM, n2 [4]: -2.5%
percent activation (calcium flux, GPCRProfiler), DT-110 @ 12.5 mM, Avg. [4]: -6.6%
percent activation (calcium flux, GPCRProfiler), DT-110 @ 12.5 mM, n1 [4]: -6.7%
percent activation (calcium flux, GPCRProfiler), DT-110 @ 12.5 mM, n2 [4]: -6.6%
percent activation (calcium flux, GPCRProfiler), DT-110 @ 1.25 mM, Avg. [5]: -0.2%
percent activation (calcium flux, GPCRProfiler), DT-110 @ 1.25 mM, n1 [5]: 0%
percent activation (calcium flux, GPCRProfiler), DT-110 @ 1.25 mM, n2 [5]: -0.4%
percent activation (calcium flux, GPCRProfiler), DT-110 @ 12.5 mM, Avg. [5]: 0%
percent activation (calcium flux, GPCRProfiler), DT-110 @ 12.5 mM, n1 [5]: 0.4%
percent activation (calcium flux, GPCRProfiler), DT-110 @ 12.5 mM, n2 [5]: -0.4%
percent activation (calcium flux, GPCRProfiler), DT-110 @ 1.25 mM, Avg. [6]: 0.5%
percent activation (calcium flux, GPCRProfiler), DT-110 @ 1.25 mM, n1 [6]: 1.3%
percent activation (calcium flux, GPCRProfiler), DT-110 @ 1.25 mM, n2 [6]: -0.4%
percent activation (calcium flux, GPCRProfiler), DT-110 @ 12.5 mM, Avg. [6]: -0.1%
percent activation (calcium flux, GPCRProfiler), DT-110 @ 12.5 mM, n1 [6]: -0.7%
percent activation (calcium flux, GPCRProfiler), DT-110 @ 12.5 mM, n2 [6]: 0.5%
percent activation (calcium flux, GPCRProfiler), DT-110 @ 1.25 mM, Avg. [7]: -0.1%
percent activation (calcium flux, GPCRProfiler), DT-110 @ 1.25 mM, n1 [7]: -7.8%
percent activation (calcium flux, GPCRProfiler), DT-110 @ 1.25 mM, n2 [7]: 7.6%
percent activation (calcium flux, GPCRProfiler), DT-110 @ 12.5 mM, Avg. [7]: -2.3%
percent activation (calcium flux, GPCRProfiler), DT-110 @ 12.5 mM, n1 [7]: 3.4%
percent activation (calcium flux, GPCRProfiler), DT-110 @ 12.5 mM, n2 [7]: -8%
percent activation (calcium flux, GPCRProfiler), DT-110 @ 1.25 mM, Avg. [8]: 0.2%
percent activation (calcium flux, GPCRProfiler), DT-110 @ 1.25 mM, n1 [8]: 1.6%
percent activation (calcium flux, GPCRProfiler), DT-110 @ 1.25 mM, n2 [8]: -1.1%
percent activation (calcium flux, GPCRProfiler), DT-110 @ 12.5 mM, Avg. [8]: -0.9%
percent activation (calcium flux, GPCRProfiler), DT-110 @ 12.5 mM, n1 [8]: -0.8%
percent activation (calcium flux, GPCRProfiler), DT-110 @ 12.5 mM, n2 [8]: -0.9%
percent activation (calcium flux, GPCRProfiler), DT-110 @ 1.25 mM, Avg. [9]: 69.2%
percent activation (calcium flux, GPCRProfiler), DT-110 @ 1.25 mM, n1 [9]: 76.5%
percent activation (calcium flux, GPCRProfiler), DT-110 @ 1.25 mM, n2 [9]: 62%
percent activation (calcium flux, GPCRProfiler), DT-110 @ 12.5 mM, Avg. [9]: 64.5%
percent activation (calcium flux, GPCRProfiler), DT-110 @ 12.5 mM, n1 [9]: 60.7%
percent activation (calcium flux, GPCRProfiler), DT-110 @ 12.5 mM, n2 [9]: 68.3%
percent activation (calcium flux, GPCRProfiler), DT-110 @ 1.25 mM, Avg. [10]: -9.5%
percent activation (calcium flux, GPCRProfiler), DT-110 @ 1.25 mM, n1 [10]: -9.3%
percent activation (calcium flux, GPCRProfiler), DT-110 @ 1.25 mM, n2 [10]: -9.6%
percent activation (calcium flux, GPCRProfiler), DT-110 @ 12.5 mM, Avg. [10]: 50.2%
percent activation (calcium flux, GPCRProfiler), DT-110 @ 12.5 mM, n1 [10]: 55.9%
percent activation (calcium flux, GPCRProfiler), DT-110 @ 12.5 mM, n2 [10]: 44.5%
percent activation (calcium flux, GPCRProfiler), DT-110 @ 1.25 mM, Avg. [11]: -8.1%
percent activation (calcium flux, GPCRProfiler), DT-110 @ 1.25 mM, n1 [11]: -8.1%
percent activation (calcium flux, GPCRProfiler), DT-110 @ 1.25 mM, n2 [11]: -8%
percent activation (calcium flux, GPCRProfiler), DT-110 @ 12.5 mM, Avg. [11]: 54.3%
percent activation (calcium flux, GPCRProfiler), DT-110 @ 12.5 mM, n1 [11]: 52.9%
percent activation (calcium flux, GPCRProfiler), DT-110 @ 12.5 mM, n2 [11]: 55.7%
percent activation (calcium flux, GPCRProfiler), DT-110 @ 1.25 mM, Avg. [12]: -0.5%
percent activation (calcium flux, GPCRProfiler), DT-110 @ 1.25 mM, n1 [12]: 3%
percent activation (calcium flux, GPCRProfiler), DT-110 @ 1.25 mM, n2 [12]: -4%
percent activation (calcium flux, GPCRProfiler), DT-110 @ 12.5 mM, Avg. [12]: 3.4%
percent activation (calcium flux, GPCRProfiler), DT-110 @ 12.5 mM, n1 [12]: -0.2%
percent activation (calcium flux, GPCRProfiler), DT-110 @ 12.5 mM, n2 [12]: 7%
percent activation (calcium flux, GPCRProfiler), DT-110 @ 1.25 mM, Avg. [13]: 0%
percent activation (calcium flux, GPCRProfiler), DT-110 @ 1.25 mM, n1 [13]: 0.7%
percent activation (calcium flux, GPCRProfiler), DT-110 @ 1.25 mM, n2 [13]: -0.8%
percent activation (calcium flux, GPCRProfiler), DT-110 @ 12.5 mM, Avg. [13]: -0.3%
percent activation (calcium flux, GPCRProfiler), DT-110 @ 12.5 mM, n1 [13]: -0.6%
percent activation (calcium flux, GPCRProfiler), DT-110 @ 12.5 mM, n2 [13]: 0%
